According to patent US20260083641:

Tested on: collagen

| Substance | fluorescence intensity, in vitro collagenase activity assay | collagenase activity relative to COLG |
| --- | --- | --- |
| N-terminally truncated recombinant collagenase G (ColG) from Clostridium histolyticum, residues Tyr119-Lys1118, with N-terminal His-tag and TEV cleavage site | where all the reaction components were included (two most right bars) significantly higher fluorescence was detected | – |
| commercial collagenase (C.COL) (Sigma-Aldrich) | where all the reaction components were included (two most right bars) significantly higher fluorescence was detected | the activity of C.COL was significantly higher, increase of about 30%-40%, than that of COLG |
